Legend:
[1] = biological target: HIF-1alpha/ARNT4 (Homo sapiens, UniProt Q16665;Q8WYA1-5 Q16665:1-826,Q8WYA1-5:1-602); assay: EMSA; HIF-1 did not form dimers with ARNT4 and bind the site
[2] = biological target: EPAS1/ARNT4 heterodimer (Homo sapiens, UniProt Q99814;Q8WYA1-5 Q99814:1-870,Q8WYA1-5:1-602); assay: EMSA; probe described as HIF-1 site / hypoxia responsive element of VEGF
EPAS1/ARNT4 heterodimer, sequence (Q99814 whole entry, chain 1 of 2): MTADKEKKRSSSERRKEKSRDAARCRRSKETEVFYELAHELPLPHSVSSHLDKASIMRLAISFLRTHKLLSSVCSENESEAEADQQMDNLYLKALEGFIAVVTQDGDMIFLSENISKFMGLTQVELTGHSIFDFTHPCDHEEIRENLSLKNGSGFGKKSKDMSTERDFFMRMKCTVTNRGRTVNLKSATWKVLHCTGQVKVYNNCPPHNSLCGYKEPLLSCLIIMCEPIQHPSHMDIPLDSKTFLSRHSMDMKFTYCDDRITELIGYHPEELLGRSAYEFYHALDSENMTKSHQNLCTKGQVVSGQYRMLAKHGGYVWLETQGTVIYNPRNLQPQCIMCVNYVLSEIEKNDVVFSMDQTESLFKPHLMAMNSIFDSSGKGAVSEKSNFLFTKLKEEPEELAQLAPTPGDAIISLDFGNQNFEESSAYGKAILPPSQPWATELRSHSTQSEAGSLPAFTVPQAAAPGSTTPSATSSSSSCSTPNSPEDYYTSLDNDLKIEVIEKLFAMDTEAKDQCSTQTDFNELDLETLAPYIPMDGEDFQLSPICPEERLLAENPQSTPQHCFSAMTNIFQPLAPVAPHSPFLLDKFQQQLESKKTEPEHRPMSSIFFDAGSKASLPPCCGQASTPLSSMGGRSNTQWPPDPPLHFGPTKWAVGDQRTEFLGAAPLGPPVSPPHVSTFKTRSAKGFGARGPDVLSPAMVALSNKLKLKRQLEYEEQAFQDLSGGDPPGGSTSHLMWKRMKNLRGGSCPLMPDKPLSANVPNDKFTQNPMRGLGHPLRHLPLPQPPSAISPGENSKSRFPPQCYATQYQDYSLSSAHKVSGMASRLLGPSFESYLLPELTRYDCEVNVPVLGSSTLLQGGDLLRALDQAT
EPAS1/ARNT4 heterodimer, sequence (Q8WYA1 other isoform, or with tags, fused parts or gaps, chain 2 of 2): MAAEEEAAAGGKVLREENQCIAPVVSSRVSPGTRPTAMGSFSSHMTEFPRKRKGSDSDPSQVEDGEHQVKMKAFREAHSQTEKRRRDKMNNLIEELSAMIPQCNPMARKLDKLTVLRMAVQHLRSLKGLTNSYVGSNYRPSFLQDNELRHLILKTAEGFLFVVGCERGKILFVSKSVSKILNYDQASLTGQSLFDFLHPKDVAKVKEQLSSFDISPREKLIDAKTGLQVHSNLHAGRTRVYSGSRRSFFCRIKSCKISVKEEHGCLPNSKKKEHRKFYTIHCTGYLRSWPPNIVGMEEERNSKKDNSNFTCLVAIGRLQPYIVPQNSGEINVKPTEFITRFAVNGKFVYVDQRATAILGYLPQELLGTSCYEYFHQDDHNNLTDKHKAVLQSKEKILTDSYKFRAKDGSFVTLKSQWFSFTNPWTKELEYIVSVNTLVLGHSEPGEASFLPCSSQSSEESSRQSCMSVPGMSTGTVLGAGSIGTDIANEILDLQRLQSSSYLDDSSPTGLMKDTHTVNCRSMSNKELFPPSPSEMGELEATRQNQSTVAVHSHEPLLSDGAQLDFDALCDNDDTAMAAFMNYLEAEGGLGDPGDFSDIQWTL

HIF-1alpha/ARNT4, sequence (Q16665 whole entry, chain 1 of 2): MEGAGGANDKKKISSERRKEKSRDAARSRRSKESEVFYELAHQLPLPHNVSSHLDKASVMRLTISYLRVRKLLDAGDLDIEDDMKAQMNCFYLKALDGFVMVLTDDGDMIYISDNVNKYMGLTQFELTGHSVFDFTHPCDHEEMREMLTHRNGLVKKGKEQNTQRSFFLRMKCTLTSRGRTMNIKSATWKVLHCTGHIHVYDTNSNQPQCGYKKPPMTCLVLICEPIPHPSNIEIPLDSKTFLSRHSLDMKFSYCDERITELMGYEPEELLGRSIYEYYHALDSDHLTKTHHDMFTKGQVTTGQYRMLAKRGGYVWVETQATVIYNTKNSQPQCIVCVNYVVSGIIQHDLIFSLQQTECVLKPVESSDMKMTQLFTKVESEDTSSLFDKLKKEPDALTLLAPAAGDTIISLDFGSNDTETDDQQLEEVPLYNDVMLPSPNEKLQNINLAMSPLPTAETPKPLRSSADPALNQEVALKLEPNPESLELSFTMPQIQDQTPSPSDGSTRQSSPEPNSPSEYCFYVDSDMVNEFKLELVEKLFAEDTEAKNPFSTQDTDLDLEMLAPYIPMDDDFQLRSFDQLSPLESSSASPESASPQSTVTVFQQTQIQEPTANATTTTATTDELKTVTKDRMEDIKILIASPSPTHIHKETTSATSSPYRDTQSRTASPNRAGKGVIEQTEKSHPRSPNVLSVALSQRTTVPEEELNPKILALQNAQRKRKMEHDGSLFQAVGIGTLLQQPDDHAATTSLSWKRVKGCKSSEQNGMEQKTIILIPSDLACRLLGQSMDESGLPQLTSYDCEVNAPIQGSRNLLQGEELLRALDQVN
HIF-1alpha/ARNT4, sequence (Q8WYA1 other isoform, or with tags, fused parts or gaps, chain 2 of 2): as the sequence (Q8WYA1 other isoform, or with tags, fused parts or gaps, chain 2 of 2) above

B1: VEGF promoter HIF-1 binding site / hypoxia responsive element (dsDNA)
DNA 1: GCCCTACGTGCTGTCTCA
DNA 2: TGAGACAGCACGTAGGGC
- binding result [1]: no binding
- binding result [2]: binds

From patent publication US6395548, “Methods of modulating of angiogenesis” (President and Fellows of Harvard College)
